The record followed here is PMC9454698.

The assay concerns the target stanniocalcin 2 (STC2), recombinant (mouse) (UniProt O88452). Kind of assay: quartz crystal microbalance (QCM); STC2 (50 µg/mL) immobilised by amine coupling on LNB chip, Attana Cell 200; HRG injected at 50, 100 and 200 nM; PBS running buffer, 10 µL/min, 22 °C, 500 s dissociation; 1:1 global interaction model.

pKd: −log10 of the molar value.

By pKd is commonly meant the Kd on a negative log10 scale, so that one unit is a factor of ten. As a reminder, the koff is the first-order rate constant of dissociation. In general, kon refers to a measure of how fast the partners come together.

Sequence of UniProt O88452 (O88452 25-296): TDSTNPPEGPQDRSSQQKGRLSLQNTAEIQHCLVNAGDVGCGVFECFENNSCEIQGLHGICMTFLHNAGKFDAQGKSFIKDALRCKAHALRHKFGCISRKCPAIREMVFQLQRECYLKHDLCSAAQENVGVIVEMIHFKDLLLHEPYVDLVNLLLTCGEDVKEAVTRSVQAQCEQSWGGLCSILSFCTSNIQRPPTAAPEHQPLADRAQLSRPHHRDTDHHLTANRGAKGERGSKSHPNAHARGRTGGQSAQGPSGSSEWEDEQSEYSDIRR

For the substance “histidine-rich glycoprotein (HRG), recombinant, active (from UniProt Q9ESB3 19-525) (natural protein)”, the pKd was 7.26, the koff was 0.0014 s⁻¹ and the kon was found to be 26000 M⁻¹ s⁻¹.
